B1: HHH_rd2_0155 (parent)
chain: PPDDERKKAEKAARSGNEEKAREILERLGYSEDEARELAKRLR

Variants of: B1
Test: folding stability dG (cDNA display proteolysis); higher = more stable
Conditions: PBS, room temperature

In order of rising “folding stability dG” value:
1. PPDDERKKAEKAARSGNEEKAREILERLGYSEDEPRELAKRLR [A35P]  -0.246 kcal/mol
2. PPDDERKKAEKAARSGNEEKAREILERLGYSEDEERELAKRLR [A35E]  0.141 kcal/mol
3. PPDDERKKAEKAARSGNEEKAREILERLGYSEDEDRELAKRLR [A35D]  0.38 kcal/mol
4. PPDDERKKAEKAARSGNEEKAREILERLGYSEDPARELAKRLR [E34P]  0.438 kcal/mol
5. PPDDERKKAEKAARSGNEEKAREILERLGYSEDERRELAKRLR [A35R]  0.564 kcal/mol
6. PPDDERKKAEKAARSGNEEKAREILERLGYSEDEKRELAKRLR [A35K]  0.591 kcal/mol
7. PPDDERKKAEKAARSGNEEKAREILERLGYSEDEGRELAKRLR [A35G]  0.605 kcal/mol
8. PPDDERKKAEKAARSGNEEKAREILERLGYSEDENRELAKRLR [A35N]  0.635 kcal/mol
9. PPDDERKKAEKAARSGNEEKAREILERLGYSEDEHRELAKRLR [A35H]  0.728 kcal/mol
10. PPDDERKKAEKAARSGNEEKAREILERLGYSEDEAGELAKRLR [R36G]  0.823 kcal/mol
11. PPDDERKKAEKAARSGNEEKAREILERLGYSEDEADELAKRLR [R36D]  0.859 kcal/mol
12. PPDDERKKAEKAARSGNEEKAREILERLGYSEDEQRELAKRLR [A35Q]  0.88 kcal/mol
13. PPDDERKKAEKAARSGNEEKAREILERLGYSEDEYRELAKRLR [A35Y]  0.905 kcal/mol
14. PPDDERKKAEKAARSGNEEKAREILERLGYSEDEACELAKRLR [R36C]  0.956 kcal/mol
15. PPDDERKKAEKAARSGNEEKAREILERLGYSEDEFRELAKRLR [A35F]  0.989 kcal/mol
16. PPDDERKKAEKAARSGNEEKAREILERLGYSEDEVRELAKRLR [A35V]  0.99 kcal/mol
17. PPDDERKKAEKAARSGNEEKAREILERLGYSEDETRELAKRLR [A35T]  0.991 kcal/mol
18. PPDDERKKAEKAARSGNEEKAREILERLGYSEDGARELAKRLR [E34G]  0.998 kcal/mol
19. PPDDERKKAEKAARSGNEEKAREILERLGYSEDEWRELAKRLR [A35W]  1 kcal/mol
20. PPDDERKKAEKAARSGNEEKAREILERLGYSEDEMRELAKRLR [A35M]  1.02 kcal/mol
21. PPDDERKKAEKAARSGNEEKAREILERLGYSEDELRELAKRLR [A35L]  1.02 kcal/mol
22. PPDDERKKAEKAARSGNEEKAREILERLGYSEDWARELAKRLR [E34W]  1.08 kcal/mol
23. PPDDERKKAEKAARSGNEEKAREILERLGYSEDEAHELAKRLR [R36H]  1.17 kcal/mol
24. PPDDERKKAEKAARSGNEEKAREILERLGYSEDNARELAKRLR [E34N]  1.21 kcal/mol
25. PPDDERKKAEKAARSGNEEKAREILERLGYSEDEAEELAKRLR [R36E]  1.23 kcal/mol
26. PPDDERKKAEKAARSGNEEKAREILERLGYSEDKARELAKRLR [E34K]  1.25 kcal/mol
27. PPDDERKKAEKAARSGNEEKAREILERLGYSEDSARELAKRLR [E34S]  1.25 kcal/mol
28. PPDDERKKAEKAARSGNEEKAREILERLGYSEDESRELAKRLR [A35S]  1.25 kcal/mol
29. PPDDERKKAEKAARSGNEEKAREILERLGYSEDTARELAKRLR [E34T]  1.34 kcal/mol
30. PPDDERKKAEKAARSGNEEKAREILERLGYSEDLARELAKRLR [E34L]  1.35 kcal/mol
31. PPDDERKKAEKAARSGNEEKAREILERLGYSEDHARELAKRLR [E34H]  1.38 kcal/mol
32. PPDDERKKAEKAARSGNEEKAREILERLGYSEDFARELAKRLR [E34F]  1.39 kcal/mol
33. PPDDERKKAEKAARSGNEEKAREILERLGYSEDVARELAKRLR [E34V]  1.39 kcal/mol
34. PPDDERKKAEKAARSGNEEKAREILERLGYSEDRARELAKRLR [E34R]  1.4 kcal/mol
35. PPDDERKKAEKAARSGNEEKAREILERLGYSEDEIRELAKRLR [A35I]  1.42 kcal/mol
36. PPDDERKKAEKAARSGNEEKAREILERLGYSEDIARELAKRLR [E34I]  1.44 kcal/mol
37. PPDDERKKAEKAARSGNEEKAREILERLGYSEDYARELAKRLR [E34Y]  1.51 kcal/mol
38. PPDDERKKAEKAARSGNEEKAREILERLGYSEPEARELAKRLR [D33P]  1.55 kcal/mol
39. PPDDERKKAEKAARSGNEEKAREILERLGYSEDEAFELAKRLR [R36F]  1.56 kcal/mol
40. PPDDERKKAEKAARSGNEEKAREILERLGYSEDEAAELAKRLR [R36A]  1.56 kcal/mol
41. PPDDERKKAEKAARSGNEEKAREILERLGYSEDEAIELAKRLR [R36I]  1.57 kcal/mol
42. PPDDERKKAEKAARSGNEEKAREILERLGYSEDMARELAKRLR [E34M]  1.59 kcal/mol
43. PPDDERKKAEKAARSGNEEKAREILERLGYSEDEAKELAKRLR [R36K]  1.7 kcal/mol
44. PPDDERKKAEKAARSGNEEKAREILERLGYSEVEARELAKRLR [D33V]  1.71 kcal/mol
45. PPDDERKKAEKAARSGNEEKAREILERLGYSEDAARELAKRLR [E34A]  1.78 kcal/mol
46. PPDDERKKAEKAARSGNEEKAREILERLGYSENEARELAKRLR [D33N]  1.79 kcal/mol
47. PPDDERKKAEKAARSGNEEKAREILERLGYSEREARELAKRLR [D33R]  1.79 kcal/mol
48. PPDDERKKAEKAARSGNEEKAREILERLGYSEMEARELAKRLR [D33M]  1.8 kcal/mol
49. PPDDERKKAEKAARSGNEEKAREILERLGYSEDQARELAKRLR [E34Q]  1.81 kcal/mol
50. PPDDERKKAEKAARSGNEEKAREILERLGYSEWEARELAKRLR [D33W]  1.83 kcal/mol
51. PPDDERKKAEKAARSGNEEKAREILERLGYSELEARELAKRLR [D33L]  1.85 kcal/mol
52. PPDDERKKAEKAARSGNEEKAREILERLGYSEDDARELAKRLR [E34D]  1.87 kcal/mol
53. PPDDERKKAEKAARSGNEEKAREILERLGYSEIEARELAKRLR [D33I]  1.87 kcal/mol
54. PPDDERKKAEKAARSGNEEKAREILERLGYSEYEARELAKRLR [D33Y]  1.91 kcal/mol
55. PPDDERKKAEKAARSGNEEKAREILERLGYSEDCARELAKRLR [E34C]  1.92 kcal/mol
56. PPDDERKKAEKAARSGNEEKAREILERLGYSEKEARELAKRLR [D33K]  1.92 kcal/mol
57. PPDDERKKAEKAARSGNEEKAREILERLGYSETEARELAKRLR [D33T]  1.92 kcal/mol
58. PPDDERKKAEKAARSGNEEKAREILERLGYSEQEARELAKRLR [D33Q]  2.09 kcal/mol
59. PPDDERKKAEKAARSGNEEKAREILERLGYSESEARELAKRLR [D33S]  2.13 kcal/mol
